Experimental data as given in patent US9175045B2, “Peptidomimetic macrocycles” (Aileron Therapeutics, Inc., priority 2008, dated 2015).
Numbered stars: 1 amine (or outer) side, 2 acyl side, 3 side chain; on linkers, the order of the positions; unused ones are H or OH. Bridge positions count the residues as written; N and C are the ends. Square brackets hold non-standard residues; d marks the D form. Peptide text beside a SMILES is read from it. * marks the point of attachment. ξ: configuration not given here. ξαMeNle(6-ylidene) = CC(CCCC=[*:3])(N[*:1])C(=O)[*:2]; S5 = C=CCCC[C@](C)(N)C(=O)O; Nle = CCCC[C@H](N)C(=O)O; Aib = CC(C)(N)C(=O)O; Propionyl = CCC(=O)*

How the values were obtained:
human serum proteins = assay: Apparent affinity to human serum proteins (Kd*) by EC50 shift analysis; type: in vitro ADME; settings: nonlinear regression of EC50 shift with serum, n = 1, P = 700 μM for 100% serum
Source text: The measurement of apparent Kd values for serum protein by EC50 shift analysis provides a simple and rapid means of quantifying the propensity of experimental compounds to bind HSA and other serum proteins. A linear relationship exists between the apparent EC50 in the presence of serum protein (EC′50) and the amount of serum protein added to an in vitro assay. This relationship is defined by the binding affinity of the compound for serum proteins, expressed as Kd*. This term is an experimentally determined, apparent dissociation constant that may result from the cumulative effects of multiple, experimentally indistinguishable, binding events. The form of this relationship is presented here in Eq. 0.3, and its derivation can be found in Copeland et al, Biorg. Med. Chem. Lett. 2004, 14:2309-2312. [formula] A significant proportion of serum protein binding can be ascribed to drug interactions with HSA, due to the very high concentration of this protein in serum (35-50 g/L or 530-758 μM). To calculate the Kd value for these compounds we have assumed that the shift in EC50 upon protein addition can be ascribed fully to the HSA present in the added serum, where P is 700 μM for 100% serum, P is 70 μM for 10% serum, etc. We further made the simplifying assumption that all of the compounds bind HSA with a 1:1 stoichiometry, so that the term n in Eq. (0.3) is fixed at unity. With these parameters in place we calculated the Kd* value for each stapled peptide from the changes in EC50 values with increasing serum (and serum protein) concentrations by nonlinear regression analysis of Eq. 0.3 using Mathematica 4.1 (Wolfram Research, Inc., www.wolfram.com). EC′50 values in whole blood are estimated by setting P in Eq. 0.3 to 700 μM [HSA].

Jurkat cell line = type: cell-based; settings: for EC50: 24 h
Method: Jurkat cell line (Clone E6-1, ATCC catalog #TIB-152) is grown in specific serum-supplemented media (RPMI-1640, Invitrogen catalog #22400) as recommended by ATCC. A day prior to the initiation of the study, cells are split at optimal cell density (2×10^5-5×10^5 cells/ml) to assure actively dividing cells. The next day, cells are washed twice in serum-free Opti-MEM media (Invitrogen, Catalog #51985) and cells are then plated at optimal cell density (10,000 cells/well) in 50 μl Opti-MEM media or Opti-MEM supplemented with 2% or 10% human serum (Bioreclamation, catalog #HMSRM) in 96-well white tissue culture plate (Nunc, catalog #136102).
For serum free experiment, crosslinked polypeptides are diluted from 2 mM stocks (100% DMSO) in sterile water to prepare 400 μM working solutions. The crosslinked polypeptides and controls are diluted 10-fold first and then serially two-fold diluted in Opti-MEM in dosing plates to provide concentrations of between 1.2 and 40 μM. 50 μl of each dilution is then added to the appropriate wells of the test plate to achieve final concentrations of the polypeptides equal to between 0.6 to 20 μM. For studies using Opti-MEM supplemented with human serum (Bioreclamation, catalog #HMSRM), crosslinked polypeptides are diluted from 10 mM stocks (100% DMSO) in sterile water to prepare 2 mM working solutions. The crosslinked polypeptides and controls are diluted 10-fold first and then serially two-fold diluted in Opti-MEM in the presence of 2% or 10% of human serum to provide concentrations of the polypeptides equal to between 6.25 to 200 μM in dosing plates. 50 μl of each dilution is then added to the appropriate wells of the test plate to achieve final concentrations of the polypeptides equal to between 3.125 to 100 μM. Controls included wells without polypeptides containing the same concentration of DMSO as the wells containing the macrocycles, wells containing 0.1% Triton X-100 and wells containing no cells. Plates are incubated for 24 hours at 37° C. in humidified 5% CO2 atmosphere.
At the end of the incubation period, CellTiter-Glo assay is performed according to manufacturer's instructions (Promega, catalog #G7573) and luminescence is measured using Synergy HT Plate reader (BioTek). Luminescence correlates with viability. A reduction in viability reflects the ability of the test compounds to induce programmed cell death via BAX and BAK.

[1] = Estimated free fraction in blood, calculated from Kd* with [HSA]total 700 μM; type: in vitro ADME; settings: human; [HSA]total set at 700 μM; read-out: Free Fraction est. in blood
Method: The free fraction in blood is estimated per the following equation, as derived by Trainor, Expert Opin. Drug Disc., 2007, 2(1):51-64, where [HSA]total is set at 700 μM. [formula]

[2] = target: T1, human serum proteins (binding ascribed fully to human serum albumin, HSA) (human, UniProt P02768 25-609); assay: cell-based or functional assay
T1 sequence (P02768 25-609 limits assumed): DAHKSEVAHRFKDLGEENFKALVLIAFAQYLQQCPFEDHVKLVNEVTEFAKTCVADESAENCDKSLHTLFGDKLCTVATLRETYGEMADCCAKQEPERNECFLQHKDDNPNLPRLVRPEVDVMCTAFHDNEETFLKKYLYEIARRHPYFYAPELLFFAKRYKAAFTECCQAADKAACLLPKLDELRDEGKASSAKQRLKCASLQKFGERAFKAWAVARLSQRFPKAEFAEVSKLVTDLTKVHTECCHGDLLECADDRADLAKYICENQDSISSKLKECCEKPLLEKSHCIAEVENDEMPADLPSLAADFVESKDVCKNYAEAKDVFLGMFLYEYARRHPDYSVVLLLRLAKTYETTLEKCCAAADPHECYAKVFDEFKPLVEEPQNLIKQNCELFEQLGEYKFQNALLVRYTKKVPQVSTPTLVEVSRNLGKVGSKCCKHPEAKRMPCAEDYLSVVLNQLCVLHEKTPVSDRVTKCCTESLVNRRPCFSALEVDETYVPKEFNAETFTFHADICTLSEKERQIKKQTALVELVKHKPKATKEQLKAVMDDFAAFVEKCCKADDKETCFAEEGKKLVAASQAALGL

[3] = target: T1, human serum proteins (binding ascribed …); assay: apparent Kd* by EC50 shift analysis: Jurkat viability EC50 at 0, 2 and 10% human serum, fit assuming 1:1 binding to HSA

Kd (human serum proteins) | EC50 (Jurkat cell line) | fraction unbound [1] | Molecule | efficacy in serum-free media and in the presence of serum (Jurkat cell line; statement in words) | 2% serum EC50 (Jurkat cell viability, CellTiter-Glo) [2] | 10% serum EC50 (Jurkat cell viability, CellTiter-Glo) [2] | Kd [3]
< 100 nM | 1200 nM | < 0.001 | CCCC[C@H](NC(=O)C1(C)CCCC=CCCCC(C)(NC(=O)[C@H](C)NC(=O)[C@H](CC(C)C)NC(=O)[C@H](Cc2c[nH]cn2)NC(=O)[C@H](CCCNC(=N)N)NC(=O)[C@H](C)NC(=O)[C@@H](NC(=O)[C@H](CC(N)=O)NC(=O)[C@H](CCCNC(=N)N)NC(=O)[C@@H](NC(=O)[C@@H](NC(=O)[C@H](CC(=O)O)NC(C)=O)[C@@H](C)CC)[C@@H](C)CC)[C@@H](C)CC)C(=O)N[C@@H](C(C)C)C(=O)NCC(=O)N[C@@H](CC(=O)O)C(=O)N1)C(=O)N[C@@H](CC(=O)O)C(=O)N[C@@H](CCCNC(=N)N)C(=O)N[C@@H](CO)C(=O)N[C@H](C(N)=O)[C@@H](C)CC (stereo partly shown) [Compound 1, Ac-DIIRNIARHLA$VGD$NleDRSI-NH2] (Ac-DIIRNIARHLA[ξαMeNle(6-ylidene)]VGD[ξαMeNle(6-ylidene)][Nle]DRSI-NH2; staple 12-16) | high efficacy in serum-free media, which is substantially reduced in the presence of serum | – | – | –
< 100 nM | 1600 nM | < 0.001 | CCCC[C@H](NC(=O)C1(C)CCCC=CCCCC(C)(NC(=O)[C@H](C)NC(=O)[C@H](CC(C)C)NC(=O)[C@H](Cc2c[nH]cn2)NC(=O)[C@H](CCCNC(=N)N)NC(=O)[C@H](C)NC(=O)[C@@H](NC(=O)[C@H](CC(N)=O)NC(=O)[C@H](CCCNC(=N)N)NC(=O)[C@H](C)NC(=O)[C@H](C)NC(=O)[C@H](CC(=O)O)NC(C)=O)[C@@H](C)CC)C(=O)N[C@@H](C(C)C)C(=O)NC(C)(C)C(=O)N[C@@H](CC(=O)O)C(=O)N1)C(=O)N[C@@H](C)C(=O)N[C@@H](CCCNC(=N)N)C(=O)N[C@@H](CO)C(=O)N[C@H](C(N)=O)[C@@H](C)CC (stereo partly shown) [Compound 2, Ac-DAARNIARHLA$VAibD$NleARSI-NH2] (Ac-DAARNIARHLA[ξαMeNle(6-ylidene)]V[Aib]D[ξαMeNle(6-ylidene)][Nle]ARSI-NH2; staple 12-16) | – | – | – | –
< 100 nM | 1200 nM | < 0.001 | CCCC[C@H](NC(=O)C1(C)CCCC=CCCCC(C)(NC(=O)[C@H](C)NC(=O)[C@H](CC(C)C)NC(=O)[C@H](Cc2c[nH]cn2)NC(=O)[C@H](CCCNC(=N)N)NC(=O)[C@H](C)NC(=O)[C@@H](NC(=O)[C@H](CC(N)=O)NC(=O)[C@H](CCCNC(=N)N)NC(=O)[C@H](C)NC(=O)[C@@H](NC(=O)[C@H](CC(=O)O)NC(C)=O)[C@@H](C)CC)[C@@H](C)CC)C(=O)N[C@@H](C(C)C)C(=O)NC(C)(C)C(=O)N[C@@H](CC(=O)O)C(=O)N1)C(=O)N[C@@H](C)C(=O)N[C@@H](CCCNC(=N)N)C(=O)N[C@@H](CO)C(=O)N[C@H](C(N)=O)[C@@H](C)CC (stereo partly shown) [Compound 3, Ac-DIARNIARHLA$VAibD$NleARSI-NH2] (Ac-DIARNIARHLA[ξαMeNle(6-ylidene)]V[Aib]D[ξαMeNle(6-ylidene)][Nle]ARSI-NH2; staple 12-16) | – | – | – | –
– | – | – | Ac-ERLRRRI[S5]LCR[S5]HHST-NH2 (staple 8-12, also called hMAML) [Compound 17 (crosslinked polypeptide derived from human MAML peptide sequence)] | – | 55.1 µM | > 100 µM | < 100 nM
– | – | – | Ac-ERLRRRI[S5]LAR[S5]HHST-NH2 (staple 8-12, also called hMAML) [Compound 18 (crosslinked polypeptide derived from human MAML peptide sequence)] | – | > 100 µM | > 100 µM | < 100 nM
– | – | – | Ac-ALRRRI[S5]LCA[S5]HHST-NH2 (staple 7-11, also called hMAML) [Compound 19 (crosslinked polypeptide derived from human MAML peptide sequence)] | – | 14.7 µM | 57.5 µM | 600 nM
– | – | – | Ac-DAARNIARHLA[S5]V[Aib]D[S5][Nle]ARSI-NH2 (staple 12-16) [Compound 2 (crosslinked polypeptide derived from human BID BH3)] | – | 20.5 µM | 97.1 µM | < 100 nM
– | – | – | Ac-DIARNIARHLA[S5]V[Aib]D[S5][Nle]ARSI-NH2 (staple 12-16) [Compound 3 (crosslinked polypeptide derived from human BID BH3)] | – | 14.9 µM | 88.9 µM | < 100 nM
– | – | – | Ac-DAIRNIARHLA[S5]V[Aib]D[S5][Nle]ARSI-NH2 (staple 12-16) [Compound 4 (crosslinked polypeptide derived from human BID BH3)] | – | 11.3 µM | 73.1 µM | < 100 nM
– | – | – | IWIAQALRXIGDXFNAYYARR (N-terminal acetyl (Ac); C-terminal amide (NH2); $ at 9 and 13 (alpha-methyl amino acids joined by an all-carbon eight-carbon crosslinker with a double bond)) [Compound 12 (crosslinked polypeptide derived from human BIM BH3)] | – | 8.6 µM | 26.5 µM | 2300 nM
– | – | – | Ac-IWIAQALR[S5]IGN[S5]FNAYYARR-NH2 (staple 9-13) [Compound 16 (crosslinked polypeptide derived from human BIM BH3)] | – | 2.3 µM | 9.3 µM | 3500 nM
– | – | – | Ac-RWIAQALR[S5]IGN[S5]FNAYYARR-NH2 (staple 9-13) [Compound 15 (crosslinked polypeptide derived from human BIM BH3)] | – | 2.6 µM | 11.5 µM | 5100 nM
– | – | – | Ac-IWIAQQLR[S5]IGD[S5]FNAYYARR-NH2 (staple 9-13) [Compound 11 (crosslinked polypeptide derived from human BIM BH3)] | – | 7.9 µM | 37.6 µM | 1100 nM
– | – | – | Ac-RWIAQQLR[S5]IGD[S5]FNAYYARR-NH2 (staple 9-13) [Compound 13 (crosslinked polypeptide derived from human BIM BH3)] | – | 5.4 µM | 21.5 µM | 3800 nM
– | – | – | Ac-RWIAQALR[S5]IGD[S5]FNAFYARR-NH2 (staple 9-13) [Compound 14 (crosslinked polypeptide derived from human BIM BH3)] | – | 2.8 µM | 10.8 µM | 2300 nM
– | – | – | Propionyl-RNI[Aib]RHL[Aib][S5]V[Aib]D[S5]AARSI-NH2 (staple 9-13) [Compound 9 (crosslinked polypeptide derived from human BID BH3)] | – | 5.6 µM | 20.2 µM | 2900 nM
